The text below walks through data of article PMC8551457.

The target in series [1] is phytochrome-associated protein phosphatase 5 from Arabidopsis thaliana (AtPAPP5), isoform 2, 1-484, affinity tag removed, labelled with a green maleimide dye (Arabidopsis thaliana) (UniProt Q84XU2). The experiment in a line: MST; labelled AtPAPP5 at 50 nM, AtPhyB(1-651) variant titrated (S86D 4 nM to 70 uM, S84D 2 nM to 29 uM); 100 uM arachidonic acid (AA) added, 15 min incubation; 25 °C; premium coated capillaries; 1:1 binding model; apparent KD; phytochrome in photodynamical equilibrium with prevalence of Pfr.
Sequence of UniProt Q84XU2 (Q84XU2 other isoform, or with tags, fused parts or gaps): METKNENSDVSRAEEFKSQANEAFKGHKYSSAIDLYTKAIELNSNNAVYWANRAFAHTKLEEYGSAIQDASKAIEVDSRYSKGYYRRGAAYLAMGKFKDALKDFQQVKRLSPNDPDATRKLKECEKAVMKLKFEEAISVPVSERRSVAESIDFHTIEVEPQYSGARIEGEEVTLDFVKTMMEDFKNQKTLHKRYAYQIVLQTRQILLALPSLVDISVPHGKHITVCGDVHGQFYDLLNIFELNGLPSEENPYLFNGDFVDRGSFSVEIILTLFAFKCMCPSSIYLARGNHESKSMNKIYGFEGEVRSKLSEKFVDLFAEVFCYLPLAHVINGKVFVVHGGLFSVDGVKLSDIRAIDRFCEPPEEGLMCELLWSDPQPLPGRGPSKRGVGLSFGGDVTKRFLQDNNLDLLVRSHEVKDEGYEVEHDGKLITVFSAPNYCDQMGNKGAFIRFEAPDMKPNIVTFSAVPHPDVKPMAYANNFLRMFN

The conditions of series [2]: phosphorylation at S86.

“Also recorded” adds a separate entry of the source.

As for “AtPhyB(1-651) S84D, phosphomimetic variant of the photosensory module of Arabidopsis thaliana phytochrome B (domain or fragment)”, the Kd in series [1] came to 1.3 µM.

As for “AtPhyB(1-651) S86D, phosphomimetic variant of the photosensory module of Arabidopsis thaliana phytochrome B (domain or fragment)”, in series [1], the Kd is 1.8 µM.

For “phytochrome B (AtPhyB): S86D phosphomimetic”, in series [2], the other entry is given as “increases, dark conversion t1/2 40 min vs 270 min for wild type; also recorded: changes, 5 nm bathochromic shift of the Pfr absorption maximum”.
